Laboratory results from patent US20220153864A1 (Pieris, published 2022).

Tests used:
[1] = biological target: T1, human GPC3 expressed on cells (SK-Hep1::huGPC3; HepG2, Hep3B and MKN-45 tumor cells) (human, UniProt P51654 25-554); test: flow cytometry, SK-Hep1 cells transfected with human GPC3, detection labelled anti-human IgG, GeoMean RL1-H [upper graph]
T1 construct: whole, on cells; also called GPC3-positive tumor cells; human GPC3-expressing cells
Method: For flow cytometric analysis, respective cell lines were incubated with an exemplary fusion protein (SEQ ID NOs: 87 and 82), the GPC3 antibody or the CD137 specific lipocalin mutein (Fc fusion) as included in the fusion protein (SEQ ID NOs: 81 and 82 and SEQ ID NO: 98, respectively), a reference CD137 antibody SEQ ID NOs: 26 and 27, or an isotype control (SEQ ID NOs: 24 and 25) and detected using a fluorescently labeled anti-human IgG antibody in FACS analysis as described in the following:
5×10⁴ cells per well were incubated for 1 h in ice-cold PBS containing 5% fetal calf serum (PBS-FCS). A dilution series of the testing molecule were added to the cells and incubated for 1 h on ice. Cells were washed twice with PBS and then incubated with a goat anti-hlgG Alexa647-labeled antibody or goat anti-hlgG Alexa488-labeled antibody for 30 min on ice. Cells were subsequently washed and analyzed using iQue Flow cytometer (Intellicyte Screener). Mean geometric fluorescent signals were plotted and fitted with Graphpad software. The geometric means of the fluorescence intensity were used to calculate EC₅₀ values using a four-parameter logistic regression with bottom fixed to background.

[2] = biological target: recombinant cynomolgus GPC3 (cyGPC3) (R&D Systems) (cynomolgus, UniProt A0A2K5VK50 24-558); test: ELISA, cyGPC3 coated
Method: Recombinant huGPC3 (R&D Systems) at the concentration of 1 μg/mL in PBS was coated overnight on microtiter plates at 4° C. After five washes with 100 μL PBS-0.05% T (PBS supplemented with 0.05% (v/v) Tween 20), the plates were blocked with 2% BSA (w/v) in PBS-0.1% T (PBS-0.1% T-2% BSA) for 1 h at room temperature. After washing with 100 μL PBS-0.05% T (PBS supplemented with 0.05% (v/v) Tween 20) five times, exemplary fusion proteins (SEQ ID NOs: 87 and […] and CD137Ac1-Fusion 1 to 7) or the GPC3 antibody as include in the fusion proteins (SEQ ID NOs: 81 and 82) at different concentrations were added to the wells and incubated for 1 h at room temperature, followed by another wash step. Bound molecules under study were detected by incubation with 1:5000 diluted anti-human IgG Fc-HRP (Jackson Laboratory) in PBS-0.1% T-2% BSA. After an additional wash step, fluorogenic HRP substrate (QuantaBlu, Thermo) was added to each well and the fluorescence intensity was detected using a fluorescence microplate reader.
The same ELISA setup was also employed to determine the binding potency of fusion proteins to cynomolgus GPC3 and huCD137, where recombinant cyGPC3 (R&D Systems) or huCD137-His (recombinant human CD137 with C-terminal polyhistidine tag, R&D Systems) was instead coated on a microtiter plate. The testing agents were similarly titrated and bound agents were detected via anti-NGAL-HRP. […]

T1 sequence (P51654 25-554 limits assumed): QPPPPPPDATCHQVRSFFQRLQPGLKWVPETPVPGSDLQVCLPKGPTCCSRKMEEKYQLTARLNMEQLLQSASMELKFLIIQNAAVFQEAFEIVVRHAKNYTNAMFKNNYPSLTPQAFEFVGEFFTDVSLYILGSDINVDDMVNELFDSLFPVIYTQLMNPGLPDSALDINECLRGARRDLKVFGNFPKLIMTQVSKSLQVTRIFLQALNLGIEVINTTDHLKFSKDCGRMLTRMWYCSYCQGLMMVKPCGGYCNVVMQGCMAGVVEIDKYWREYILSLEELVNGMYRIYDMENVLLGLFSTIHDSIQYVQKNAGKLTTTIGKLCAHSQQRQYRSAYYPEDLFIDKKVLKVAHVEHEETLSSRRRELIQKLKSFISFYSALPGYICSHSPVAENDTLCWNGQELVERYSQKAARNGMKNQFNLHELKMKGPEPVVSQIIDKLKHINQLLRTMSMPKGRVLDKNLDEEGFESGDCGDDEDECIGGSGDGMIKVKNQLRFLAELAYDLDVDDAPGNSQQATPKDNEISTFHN

B1: fusion protein SEQ ID NOs: 87 and 82 (bispecific antibody, human IgG4 S228P, kappa, F234A L235A)
heavy: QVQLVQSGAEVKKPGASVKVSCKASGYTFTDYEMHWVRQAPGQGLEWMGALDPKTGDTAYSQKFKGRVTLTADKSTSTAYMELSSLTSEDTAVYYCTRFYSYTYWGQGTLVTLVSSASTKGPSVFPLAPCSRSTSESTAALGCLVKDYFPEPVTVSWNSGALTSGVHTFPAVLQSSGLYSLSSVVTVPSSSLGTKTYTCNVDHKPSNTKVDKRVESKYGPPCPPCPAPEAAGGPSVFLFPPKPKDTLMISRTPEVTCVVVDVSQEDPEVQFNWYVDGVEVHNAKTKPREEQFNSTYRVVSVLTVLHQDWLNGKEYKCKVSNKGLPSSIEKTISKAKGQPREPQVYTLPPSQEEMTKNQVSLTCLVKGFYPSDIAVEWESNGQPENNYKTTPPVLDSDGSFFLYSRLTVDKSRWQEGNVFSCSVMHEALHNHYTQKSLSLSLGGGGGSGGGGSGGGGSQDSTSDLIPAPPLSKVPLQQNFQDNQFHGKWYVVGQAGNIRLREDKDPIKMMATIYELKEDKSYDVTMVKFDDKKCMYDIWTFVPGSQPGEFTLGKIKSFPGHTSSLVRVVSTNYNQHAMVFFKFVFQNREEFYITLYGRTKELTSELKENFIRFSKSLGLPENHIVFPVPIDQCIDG
light: DVVMTQSPLSLPVTPGEPASISCRSSQSLVHSNRNTYLHWYLQKPGQSPQLLIYKVSNRFSGVPDRFSGSGSGTDFTLKISRVEAEDVGVYYCSQNTHVPPTFGQGTKLEIKRTVAAPSVFIFPPSDEQLKSGTASVVCLLNNFYPREAKVQWKVDNALQSGNSQESVTEQDSKDSTYSLSSTLTLSKADYEKHKVYACEVTHQGLSSPVTKSFNRGEC
notes: also called exemplary fusion protein
- EC50 (read off the curve) [1]: ~5 nM
- EC50 [2]: 0.34 nM
